These results are taken from article PMC9769804.

For the data set, the system named is SaraC (Stereum hirsutum FP-91666). The data set can be described thus: SPR. Conditions: S-adenosylmethionine (16 mM, protein pre-incubation), SPR Biacore T200, CM5 anti-His capture, 1x PBS with 5% DMSO pH 7.5 (protein/SAM mix), oligos in 1x PBS, 25 C, 5 uL/min, analyte 0.25-4 uM (Fig. 1 legend …). Background: SPR reads the build-up and loss of mass on a sensor chip optically.

The term Kd denotes the concentration at which binding is half-saturated. A low value points to a tighter complex. Regarding CGATCGGATTTGACGGTT [Oligo5564], the Kd (two methyl groups, printed mG at positions 7 and 12, text calls these oligos 5mC or 6mA, so methylated base is ambiguous) amounted to 821 nM. This counts as sub-micromolar. For the sequence GATTCCTTC [Oligo7291], the dissociation constant (Kd) (5mC at position 5) amounted to 662 nM.

Turning to ATCCAGAGCGAGCCTATTACG [Oligo1309], the dissociation constant Kd (called weak, 6mA at positions 7 and 11) was found to be 1670 nM. This lies in the single-digit micromolar range.
